The chains are these.
B1: 14-3-3 protein beta/alpha [OS = Homo sapiens] (other, UniProt P31946 1-246, looked up)
chain: MTMDKSELVQKAKLAEQAERYDDMAAAMKAVTEQGHELSNEERNLLSVAYKNVVGARRSSWRVISSIEQKTERNEKKQQMGKEYREKIEAELQDICNDVLELLDKYLIPNATQPESKVFYLKMKGDYFRYLSEVASGDNKQTTVSNSQQAYQEAFEISKKEMQPTHPIRLGLALNFSVFYYEILNSPEKACSLAKTAFDEAIAELDTLNEESYKDSTLIMQLLRDNLTLWTSENQGDEGDAGEGEN
B2: 2-amino-3-ketobutyrate coenzyme A ligase, mitochondrial [OS = Homo sapiens] (other, UniProt O75600 22-419, looked up)
chain: SALAQLRGILEGELEGIRGAGTWKSERVITSRQGPHIRVDGVSGGILNFCANNYLGLSSHPEVIQAGLQALEEFGAGLSSVRFICGTQSIHKNLEAKIARFHQREDAILYPSCYDANAGLFEALLTPEDAVLSDELNHASIIDGIRLCKAHKYRYRHLDMADLEAKLQEAQKHRLRLVATDGAFSMDGDIAPLQEICCLASRYGALVFMDECHATGFLGPTGRGTDELLGVMDQVTIINSTLGKALGGASGGYTTGPGPLVSLLRQRARPYLFSNSLPPAVVGCASKALDLLMGSNTIVQSMAAKTQRFRSKMEAAGFTISGASHPICPVMLGDARLASRMADDMLKRGIFVIGFSYPVVPKGKARIRVQISAVHSEEDIDRCVEAFVEVGRLHGALP
B3: Transformer-2 protein homolog alpha [OS = Homo sapiens] (other, UniProt Q13595 2-282, looked up)
chain: SDVEENNFEGRESRSQSKSPTGTPARVKSESRSGSRSPSRVSKHSESHSRSRSKSRSRSRRHSHRRYTRSRSHSHSHRRRSRSRSYTPEYRRRRSRSHSPMSNRRRHTGSRANPDPNTCLGVFGLSLYTTERDLREVFSRYGPLSGVNVVYDQRTGRSRGFAFVYFERIDDSKEAMERANGMELDGRRIRVDYSITKRAHTPTPGIYMGRPTHSGGGGGGGGGGGGGGGGRRRDSYYDRGYDRGYDRYEDYDYRYRRRSPSPYYSRYRSRSRSRSYSPRRY
B4: 14-3-3 protein eta [OS = Homo sapiens] (other, UniProt Q04917 2-246, looked up)
chain: GDREQLLQRARLAEQAERYDDMASAMKAVTELNEPLSNEDRNLLSVAYKNVVGARRSSWRVISSIEQKTMADGNEKKLEKVKAYREKIEKELETVCNDVLSLLDKFLIKNCNDFQYESKVFYLKMKGDYYRYLAEVASGEKKNSVVEASEAAYKEAFEISKEQMQPTHPIRLGLALNFSVFYYEIQNAPEQACLLAKQAFDDAIAELDTLNEDSYKDSTLIMQLLRDNLTLWTSDQQDEEAGEGN
B5: Atherin [OS = Homo sapiens] (other, UniProt Q6SPF0 1-538, looked up)
chain: MAGPPALPPPETAAAATTAAAASSSAASPHYQEWILDTIDSLRSRKARPDLERICRMVRRRHGPEPERTRAELEKLIQQRAVLRVSYKGSISYRNAARVQPPRRGATPPAPPRAPRGAPAAAAAAAPPPTPAPPPPPAPVAAAAPARAPRAAAAAATAPPSPGPAQPGPRAQRAAPLAAPPPAPAAPPAVAPPAGPRRAPPPAVAAREPPLPPPPQPPAPPQQQQPPPPQPQPPPEGGAVRAGGAARPVSLREVVRYLGGSGGAGGRLTRGRVQGLLEEEAAARGRLERTRLGALALPRGDRPGRAPPAASARPSRSKRGGEERVLEKEEEEDDDEDEDEEDDVSEGSEVPESDRPAGAQHHQLNGERGPQSAKERVKEWTPCGPHQGQDEGRGPAPGSGTRQVFSMAAMNKEGGTASVATGPDSPSPVPLPPGKPALPGADGTPFGCPPGRKEKPSDPVEWTVMDVVEYFTEAGFPEQATAFQEQEIDGKSLLLMQRTDVLTGLSIRLGPALKIYEHHIKVLQQGHFEDDDPDGFLG
B6: Pre-mRNA-splicing factor SLU7 [OS = Homo sapiens] (other, UniProt O95391 2-586, looked up)
chain: SATVVDAVNAAPLSGSKEMSLEEPKKMTREDWRKKKELEEQRKLGNAPAEVDEEGKDINPHIPQYISSVPWYIDPSKRPTLKHQRPQPEKQKQFSSSGEWYKRGVKENSIITKYRKGACENCGAMTHKKKDCFERPRRVGAKFTGTNIAPDEHVQPQLMFDYDGKRDRWNGYNPEEHMKIVEEYAKVDLAKRTLKAQKLQEELASGKLVEQANSPKHQWGEEEPNSQMEKDHNSEDEDEDKYADDIDMPGQNFDSKRRITVRNLRIREDIAKYLRNLDPNSAYYDPKTRAMRENPYANAGKNPDEVSYAGDNFVRYTGDTISMAQTQLFAWEAYDKGSEVHLQADPTKLELLYKSFKVKKEDFKEQQKESILEKYGGQEHLDAPPAELLLAQTEDYVEYSRHGTVIKGQERAVACSKYEEDVKIHNHTHIWGSYWKEGRWGYKCCHSFFKYSYCTGEAGKEIVNSEECIINEITGEESVKKPQTLMELHQEKLKEEKKKKKKKKKKHRKSSSDSDDEEKKHEKLKKALNAEEARLLHVKETMQIDERKRPYNSMYETREPTEEEMEAYRMKRQRPDDPMASFLGQ
B7: 14-3-3 protein gamma [OS = Homo sapiens] (other, UniProt P61981 1-247, looked up)
chain: MVDREQLVQKARLAEQAERYDDMAAAMKNVTELNEPLSNEERNLLSVAYKNVVGARRSSWRVISSIEQKTSADGNEKKIEMVRAYREKIEKELEAVCQDVLSLLDNYLIKNCSETQYESKVFYLKMKGDYYRYLAEVATGEKRATVVESSEKAYSEAHEISKEHMQPTHPIRLGLALNYSVFYYEIQNAPEQACHLAKTAFDDAIAELDTLNEDSYKDSTLIMQLLRDNLTLWTSDQQDDDGGEGNN
B8: Cell division cycle 5-like protein [OS = Homo sapiens] (other, UniProt Q99459 1-802, looked up)
chain: MPRIMIKGGVWRNTEDEILKAAVMKYGKNQWSRIASLLHRKSAKQCKARWYEWLDPSIKKTEWSREEEEKLLHLAKLMPTQWRTIAPIIGRTAAQCLEHYEFLLDKAAQRDNEEETTDDPRKLKPGEIDPNPETKPARPDPIDMDEDELEMLSEARARLANTQGKKAKRKAREKQLEEARRLAALQKRRELRAAGIEIQKKRKRKRGVDYNAEIPFEKKPALGFYDTSEENYQALDADFRKLRQQDLDGELRSEKEGRDRKKDKQHLKRKKESDLPSAILQTSGVSEFTKKRSKLVLPAPQISDAELQEVVKVGQASEIARQTAEESGITNSASSTLLSEYNVTNNSVALRTPRTPASQDRILQEAQNLMALTNVDTPLKGGLNTPLHESDFSGVTPQRQVVQTPNTVLSTPFRTPSNGAEGLTPRSGTTPKPVINSTPGRTPLRDKLNINPEDGMADYSDPSYVKQMERESREHLRLGLLGLPAPKNDFEIVLPENAEKELEEREIDDTYIEDAADVDARKQAIRDAERVKEMKRMHKAVQKDLPRPSEVNETILRPLNVEPPLTDLQKSEELIKKEMITMLHYDLLHHPYEPSGNKKGKTVGFGTNNSEHITYLEHNPYEKFSKEELKKAQDVLVQEMEVVKQGMSHGELSSEAYNQVWEECYSQVLYLPGQSRYTRANLASKKDRIESLEKRLEINRGHMTTEAKRAAKMEKKMKILLGGYQSRAMGLMKQLNDLWDQIEQAHLELRTFEELKKHEDSAIPRRLECLKEDVQRQQEREKELQHRYADLLLEKETLKSKF
B9: 14-3-3ζ S58E (other)
chain: MDKNELVQKAKLAEQAERYDDMAACMKSVTEQGAELSNEERNLLSVAYKNVVGARRSEWRVVSSIEQKTEGAEKKQQMAREYREKIETELRDICNDVLSLLEKFLIPNASQAESKVFYLKMKGDYYRYLAEVAAGDDKKGIVDQSQQAYQEAFEISKKEMQPTHPIRLGLALNFSVFYYEILNSPEKACSLAKTAFDEAIAELDTLSEESYKDSTLIMQLLRDNLTLWTSDTQGDEAEAGEGGEN
notes: also called S58E phosphomimetic; 14-3-3ζ with glutamate at residue 58

Nine molecules from US20240391961A1 (OREGON STATE UNIVERSITY, published 2024) can be followed below.

One series addresses T1, 14-3-3ζ nhpSer58 with a FLAG tag at its N-terminus (Homo sapiens (Human), UniProt P63104 1-245).
T1 sequence: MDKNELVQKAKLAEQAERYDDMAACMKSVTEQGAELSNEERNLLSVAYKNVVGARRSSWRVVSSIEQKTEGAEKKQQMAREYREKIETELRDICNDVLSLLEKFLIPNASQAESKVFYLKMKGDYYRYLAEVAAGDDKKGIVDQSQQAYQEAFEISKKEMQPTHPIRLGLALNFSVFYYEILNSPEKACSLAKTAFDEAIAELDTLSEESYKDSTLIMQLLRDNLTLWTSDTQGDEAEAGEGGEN
Assay: not given
The molecule B1 had an FC of 0.0486 fold.

Regarding B2, the FC was determined as 0.0267 fold.

With B3, the FC was found to be 0.0906 fold.

As to B4, the FC was found to be 0.0561 fold.

The molecule B5 showed an FC of 0.0524 fold.

Regarding B6, the FC is 0.0628 fold.

The molecule B7 registered an FC of 0.0531 fold.

In turn, B8 came in with an FC of 0.0607 fold.

A further series concerns the molecule itself. Kind of series: SEC-MALS (homodimer).
Source text: 14-3-3 dimerization can be regulated by phosphorylation of a serine residue at the dimer interface, e.g., serine residue 58 (Ser58).
B9: the binding result is “binds”.
